{"source": "paper PMC1849897", "binders": {"B1": {"name": "3' Tail (o1/o2) (mixed)", "DNA 1": "GACGCTGCCGAATTCTGGCTTGCTAGGACATCTTTGCCCACGTTGACCCG", "DNA 2": "ATGTCCTAGCAAGCCAGAATTCGGCAGCGTC"}, "B2": {"name": "Forked (o1/o3) (mixed)", "DNA 1": "B1 DNA 1", "DNA 2": "CGAATAATCGTCATGTCCTAGCAAGCCAGAATTCGGCAGCGTC"}}, "test_in_all_cases": "filter binding", "key": {"[1]": {"target": "T1, Py-DmBLM (Drosophila Bloom's syndrome helicase) (Drosophila, UniProt Q9VGI8 1-1487)", "T1 sequence (Q9VGI8 whole entry)": "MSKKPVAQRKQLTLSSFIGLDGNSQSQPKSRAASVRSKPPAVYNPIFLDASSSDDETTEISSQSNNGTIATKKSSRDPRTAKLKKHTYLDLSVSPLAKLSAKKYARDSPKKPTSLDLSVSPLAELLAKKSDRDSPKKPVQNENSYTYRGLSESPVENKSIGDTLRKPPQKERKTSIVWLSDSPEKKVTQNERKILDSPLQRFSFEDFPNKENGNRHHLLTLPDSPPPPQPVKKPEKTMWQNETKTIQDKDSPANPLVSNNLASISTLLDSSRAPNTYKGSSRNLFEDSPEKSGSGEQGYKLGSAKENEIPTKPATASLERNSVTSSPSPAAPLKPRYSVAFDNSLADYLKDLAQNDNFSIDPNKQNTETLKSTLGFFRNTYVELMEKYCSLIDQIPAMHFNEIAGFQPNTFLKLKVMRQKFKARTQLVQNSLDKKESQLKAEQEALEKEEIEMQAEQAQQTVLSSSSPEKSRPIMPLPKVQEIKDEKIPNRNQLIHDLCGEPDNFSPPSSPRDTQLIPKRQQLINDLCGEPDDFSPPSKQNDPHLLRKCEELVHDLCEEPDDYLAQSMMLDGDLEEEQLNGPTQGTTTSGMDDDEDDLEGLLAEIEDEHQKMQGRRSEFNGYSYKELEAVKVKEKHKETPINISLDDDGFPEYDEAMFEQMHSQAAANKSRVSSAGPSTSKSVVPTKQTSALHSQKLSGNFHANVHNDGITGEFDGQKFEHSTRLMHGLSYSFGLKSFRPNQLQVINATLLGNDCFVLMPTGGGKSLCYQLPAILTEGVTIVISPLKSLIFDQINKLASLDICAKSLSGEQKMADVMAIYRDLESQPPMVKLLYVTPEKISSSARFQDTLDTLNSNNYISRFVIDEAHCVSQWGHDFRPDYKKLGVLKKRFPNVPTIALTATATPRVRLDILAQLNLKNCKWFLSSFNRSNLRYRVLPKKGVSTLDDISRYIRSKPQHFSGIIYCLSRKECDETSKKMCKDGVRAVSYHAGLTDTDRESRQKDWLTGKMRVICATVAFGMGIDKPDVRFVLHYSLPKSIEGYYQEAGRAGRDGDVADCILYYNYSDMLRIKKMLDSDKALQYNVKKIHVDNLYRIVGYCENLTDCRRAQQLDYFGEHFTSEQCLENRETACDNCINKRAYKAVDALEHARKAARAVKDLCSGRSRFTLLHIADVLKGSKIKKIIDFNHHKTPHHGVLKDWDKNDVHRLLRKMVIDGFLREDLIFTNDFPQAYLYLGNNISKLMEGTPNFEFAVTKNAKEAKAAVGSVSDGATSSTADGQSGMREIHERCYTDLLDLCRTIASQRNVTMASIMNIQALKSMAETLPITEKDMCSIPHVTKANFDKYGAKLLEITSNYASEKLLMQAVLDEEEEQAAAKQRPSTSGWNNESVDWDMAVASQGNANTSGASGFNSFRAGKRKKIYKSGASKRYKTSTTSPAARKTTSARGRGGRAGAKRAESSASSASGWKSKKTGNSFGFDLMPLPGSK"}, "[2]": {"target": "T1, Py-DmBLM (Drosophila Bloom's syndrome …)", "remark": "listed apart in the source"}, "[3]": {"target": "T1, Py-DmBLM (Drosophila Bloom's syndrome …)", "remark": "listed apart in the source"}}, "note": "Where two headings read alike, the source gives them in different places.", "data": [{"binder": "B1", "values": [{"measurement": "binding result", "setting": "[1]", "value": "binds"}]}, {"binder": "B2", "values": [{"measurement": "binding result", "setting": "[2]", "value": "binds"}]}, {"binder": "GACGCTGCCGAATTCTGGCTTGCTAGGACATCTTTGCCCACGTTGACCCG (ssDNA)", "note": "[o1]", "values": [{"measurement": "binding result", "setting": "[3]", "value": "binds"}]}]}
